What was measured:
[1] = target: T1, NKp46 on human peripheral blood mononuclear cells (human, UniProt O76036 22-304); assay: flow cytometry on PBMCs
T1 construct: also called human PBMCs
Procedure: (§1) The binding characteristics of the two human-murine chimeric NKp46 antibodies (i.e., human-murine chimeric 10D10 antibody and human-murine chimeric 3B9 antibody) prepared in Example 4 were detected using the flow cytometry assay. Human-murine chimeric NKp46 antibodies were added to human and cynomolgus monkey peripheral blood mononuclear cells. The signal intensity after antibody addition was used to determine the binding characteristics of the antibody to PBMCs. The specific steps were as follows:
(§2) Human and cynomolgus monkey peripheral blood mononuclear cells (PBMCs) were diluted to 2×10⁶ cells/mL with PBS and added to 1.5 mL EP tube at 100 μL/tube. Goat serum was added at 10 μL/tube and was blocked at 4° C. for 30 min. NKp46 antibodies at different concentrations gradients and the positive control antibody (hIgG1 LALA) were added and incubated at 4° C. for 30 min. The EP tube was added with 1 mL of PBS, and centrifuged at 3500 rpm at 4° C. for 5 min. The supernatant was discarded and the pellet was washed once more with PBS. After centrifugation, the supernatant was discarded, and the cells were resuspended with 100 IL/tube of PBS, and 0.1 μL/tube of Alexa-647 labeled rat anti-human IgG-Fc secondary antibody (Biolegend) and 0.5 μL/tube BV510-labeled CD16 antibody were added, and incubated at 4° C. in the dark for 30 min. The pellet was washed twice with PBS and the supernatant was discarded after centrifugation. The cells were resuspended with 200 μL/tube of PBS and detected by flow cytometry.

[2] = target: T2, NKp46 on cynomolgus monkey peripheral blood mononuclear cells (cynomolgus monkey, UniProt Q95JB9 22-306); assay: flow cytometry on PBMCs
T2 construct: whole, on cells; also called cynomolgus monkey PBMCs
Procedure: as §1, §2

[3] = target: T3, human NKp46-His fusion protein (human, UniProt O76036 22-258); assay: ELISA, NKp46-His coated, anti-human HRP
T3 construct: Bought from Acro; also called NKp46 extracellular region His tag fusion protein; not shown: His tag

[4] = target: T4, cynomolgus monkey-His fusion protein (cynomolgus monkey, UniProt Q95JB9 22-257); assay: ELISA, NKp46-His coated, anti-human HRP
T4 construct: extracellular domain; also called cynomolgus monkey NKp46; monkey NKp46; not shown: His tag

[5] = target: T1, NKp46 on human peripheral blood …; assay: flow cytometry on human PBMCs
Procedure: The binding characteristics of the three NKp46 antibodies (10D10 antibody, 10E10 antibody, and 3B9 antibody) obtained in Example 1 were detected using the flow cytometry assay. Murine NKp46 antibodies were added to human peripheral blood mononuclear cells. The signal intensity after antibody addition was used to determine the binding characteristics of the antibody to PBMCs. The specific steps were as follows:
Human peripheral blood mononuclear cells (PBMCs) were diluted to 2×10⁶ cells/mL with PBS and added to a 1.5 mL EP tube at 100 μL/tube. Goat serum was added at […] and was blocked at 4° C. for 30 min. NKp46 antibodies at different concentrations gradients were added and incubated at 4° C. for 30 min. The EP tube was added with 1 mL of PBS, and centrifuged at 3500 rpm at 4° C. for 5 min. The supernatant was discarded and the pellet was washed once more with PBS. After centrifugation, the supernatant was discarded, and the cells were resuspended with 100 μL/tube of PBS, and 0.1 μL/tube of Alexa-647-labeled goat anti-mouse secondary antibody (Biolegend) and 0.5 μL/tube of FITC-labeled CD3 antibody were added, and incubated at 4° C. in the dark for 30 min. The pellet was washed twice with PBS and the supernatant was discarded after centrifugation. The cells were resuspended with 200 μL/tube of PBS and detected by flow cytometry.

[6] = target: T3, human NKp46-His fusion protein; assay: ELISA, NKp46-His coated, anti-mouse HRP
Source text: (§3) The binding characteristics of the three NKp46 antibodies (10D10 antibody, 10E10 antibody, and 3B9 antibody) obtained in Example 1 were detected using the ELISA assay. The NKp46 extracellular region His tag fusion protein (NKp46-His) was coated into a 96-well plate. The signal intensity after antibody addition was used to determine the binding characteristics of the antibody to NKp46. The specific steps were as follows:
(§4) The human NKp46-His fusion protein (purchased from Acro) and cynomolgus monkey-His fusion protein (purchased from Acro) were diluted to 1 μg/mL with PBS buffer, added to a 96-well plate at 100 μL/well, and left overnight at 4° C. The PBS buffer solution was removed from the 96-well plate. The plate was washed 6 times with PBST (pH 7.2, PBS containing 0.1% Tween 20) buffer solution. PBS/10% BSA was added at 200 μL/well and incubated at 37° C. for 2 hours for blocking. The blocking solution was removed. The plate was washed 6 times with PBST. NKp46 antibody to be tested diluted to an appropriate concentration with PBST/0.05% BSA was added at 100 μL/well, and incubated for 1 h at 37° C. The reaction system was removed. The plate was washed 6 times with PBST. HRP (horseradish peroxidase)-labeled anti-mouse secondary antibody diluted with PBST/0.05% BSA was added at 100 μL/well and incubated for 1 h at 37° C. The plate was washed 6 times with PBST, and TMB (tetramethylbenzidine) was added at 80 μL/well. After 3 min of incubation at room temperature, 4M sulfuric acid was added at 80 μL/well to terminate the reaction. The absorbance at […] was read with a microplate reader.

[7] = target: T4, cynomolgus monkey-His fusion protein; assay: ELISA, NKp46-His coated, anti-mouse HRP
Source text: as §3, §4

T4 sequence (Q95JB9 22-257): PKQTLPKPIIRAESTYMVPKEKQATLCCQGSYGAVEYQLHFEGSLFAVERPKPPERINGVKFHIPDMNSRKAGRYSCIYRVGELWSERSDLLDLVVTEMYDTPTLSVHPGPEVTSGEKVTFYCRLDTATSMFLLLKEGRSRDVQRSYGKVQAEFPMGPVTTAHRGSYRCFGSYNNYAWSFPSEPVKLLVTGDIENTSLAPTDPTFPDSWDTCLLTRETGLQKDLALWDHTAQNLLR
T3 sequence (O76036 22-258 Q82K): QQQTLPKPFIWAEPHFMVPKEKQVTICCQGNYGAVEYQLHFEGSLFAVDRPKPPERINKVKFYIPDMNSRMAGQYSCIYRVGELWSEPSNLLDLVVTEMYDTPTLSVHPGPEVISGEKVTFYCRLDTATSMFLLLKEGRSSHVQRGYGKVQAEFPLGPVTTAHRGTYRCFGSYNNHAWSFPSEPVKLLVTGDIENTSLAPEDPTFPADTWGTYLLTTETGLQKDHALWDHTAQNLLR
T1 sequence (O76036 22-304 Q82K limits assumed): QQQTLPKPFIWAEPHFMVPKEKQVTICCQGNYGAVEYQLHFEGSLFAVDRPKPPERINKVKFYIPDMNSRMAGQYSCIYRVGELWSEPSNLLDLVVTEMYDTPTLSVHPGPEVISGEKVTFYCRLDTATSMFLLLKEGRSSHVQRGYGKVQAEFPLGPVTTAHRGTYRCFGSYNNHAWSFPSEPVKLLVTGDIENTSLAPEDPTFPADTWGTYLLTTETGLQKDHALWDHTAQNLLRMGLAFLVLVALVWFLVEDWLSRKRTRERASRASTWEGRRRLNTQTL
T2 sequence (Q95JB9 22-306): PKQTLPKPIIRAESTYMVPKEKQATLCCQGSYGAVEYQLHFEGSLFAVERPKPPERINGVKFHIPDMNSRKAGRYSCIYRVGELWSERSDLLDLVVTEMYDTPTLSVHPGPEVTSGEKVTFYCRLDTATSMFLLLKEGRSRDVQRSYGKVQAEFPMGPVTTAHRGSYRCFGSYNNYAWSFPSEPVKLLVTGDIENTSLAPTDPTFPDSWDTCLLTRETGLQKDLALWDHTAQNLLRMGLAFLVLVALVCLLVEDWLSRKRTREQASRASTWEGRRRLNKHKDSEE

binding result [1] | binding result [2] | binding result [3] | binding result [4] | binding result [5] | binding result [6] | binding result [7] | Binder
binds | binds | binds | binds | – | – | – | human-murine chimeric 3B9 antibody (antibody, human IgG1, kappa, L234A L235A, Human IgG1 LALA constant region, made in ExpiCHO-S cells; also called 3B9-hIgG1LALA) heavy: not shown light: DVVMTQTPLTLSVTIGQPASISCKSSQSLLNSDGKTYLNWLLQRPGQSPKRLISLVSKLDSGVPDRFTGSGSGTDFTLKISRVEAEDLGVYYCWQGTHFWTFGGGTKLEIKRTVAAPSVFIFPPSDEQLKSGTASVVCLLNNFYPREAKVQWKVDNALQSGNSQESVTEQDSKDSTYSLSSTLTLSKADYEKHKVYACEVTHQGLSSPVTKSFNRGEC
– | – | – | – | binds | binds | binds | murine 3B9 antibody (antibody, mouse IgG2a, kappa, Murine monoclonal antibody from a hybridoma) heavy: EVKLVESGGGLVKPGGSLKLSCAPFGFTFSSYAMSWVRQTPEKRLEWVASISSGGITYYPDSVKGRFTISRDNVRNILNLQMSSLRSEDTAMYYCVRGFLTSYWGQGTLVTVSAAKTTAPSVYPLAPVCGDTTGSSVTLGCLVKGYFPEPVTLTWNSGSLSSGVHTFPAVLQSDLYTLSSSVTVTSSTWPSQSITCNVAHPASSTKVDKKIEPRGPTIKPCPPCKCPAPNLLGGPSVFIFPPKIKDVLMISLSPIVTCVVVDVSEDDPDVQISWFVNNVEVHTAQTQTHREDYNSTLRVVSALPIQHQDWMSGKEFKCKVNNKDLPAPIERTISKPKGSVRAPQVYVLPPPEEEMTKKQVTLTCMVTDFMPEDIYVEWTNNGKTELNYKNTEPVLDSDGSYFMYSKLRVEKKNWVERNSYSCSVVHEGLHNHHTTKSFSRTPGK light: not shown
– | – | – | – | binds | binds | binds | murine 10E10 antibody (antibody, mouse IgG2a, kappa, Murine monoclonal antibody from a hybridoma) heavy: QVQLQQSGDDLVKPGASVKLSCKASGYTFTSYWINWIKQRPGQGLEWIGRVVPGSGRTYYNEIFKGKAILTVDSYSNTAYIQLRSVSSEDSAVYFCARVGGYWDYWGQGITLTVSSAKTTAPSVYPLAPVCGDTTGSSVTLGCLVKGYFPEPVTLTWNSGSLSSGVHTFPAVLQSDLYTLSSSVTVTSSTWPSQSITCNVAHPASSTKVDKKIEPRGPTIKPCPPCKCPAPNLLGGPSVFIFPPKIKDVLMISLSPIVTCVVVDVSEDDPDVQISWFVNNVEVHTAQTQTHREDYNSTLRVVSALPIQHQDWMSGKEFKCKVNNKDLPAPIERTISKPKGSVRAPQVYVLPPPEEEMTKKQVTLTCMVTDFMPEDIYVEWTNNGKTELNYKNTEPVLDSDGSYFMYSKLRVEKKNWVERNSYSCSVVHEGLHNHHTTKSFSRTPGK light: QIVLSQSPAILSASPGEKVTMACRASSSVNYIHWYQQRPGSSPKPWIYATSSLASGVPARFSGSGSGTSYSLTISRVEAEDAATYYCQQWSSNPYTFGGGTKLEMKRADAAPTVSIFPPSSEQLTSGGASVVCFLNNFYPKDINVKWKIDGSERQNGVLNSWTDQDSKDSTYSMSSTLTLTKDEYERHNSYTCEATHKTSTSPIVKSFNRNEC
– | – | – | – | binds | binds | binds | murine 10D10 antibody (antibody, mouse IgG2a, kappa, Murine monoclonal antibody from a hybridoma) heavy: QVQLQQPGAELVRPGASVRLSCKASGYTFTTYWMHWVKLRPGQGFEWIGEINPGNGGTNYNEKFKRKATLTVDKSSSTAYMQLSSLTSEDSAVYYCAIRLRFALDYWGQGTSVTVSSAKTTAPSVYPLAPVCGDTTGSSVTLGCLVKGYFPEPVTLTWNSGSLSSGVHTFPAVLQSDLYTLSSSVTVTSSTWPSQSITCNVAHPASSTKVDKKIEPRGPTIKPCPPCKCPAPNLLGGPSVFIFPPKIKDVLMISLSPIVTCVVVDVSEDDPDVQISWFVNNVEVHTAQTQTHREDYNSTLRVVSALPIQHQDWMSGKEFKCKVNNKDLPAPIERTISKPKGSVRAPQVYVLPPPEEEMTKKQVTLTCMVTDFMPEDIYVEWTNNGKTELNYKNTEPVLDSDGSYFMYSKLRVEKKNWVERNSYSCSVVHEGLHNHHTTKSFSRTPGK light: DIQMTQTTSSLSASLGDRVTISCRASQDVRNFLNWFQQKPDGTVKLLIYFTSRLHSGVPSRFSGSGSGTDYSLTISNLEQEDIATYFCQQGNTLPPTFGGGTKLEIKRADAAPTVSIFPPSSEQLTSGGASVVCFLNNFYPKDINVKWKIDGSERQNGVLNSWTDQDSKDSTYSMSSTLTLTKDEYERHNSYTCEATHKTSTSPIVKSFNRNEC
binds | binds | binds | binds | – | – | – | human-murine chimeric 10D10 antibody (antibody, human IgG1, kappa, L234A L235A, Human IgG1 LALA constant region, made in ExpiCHO-S cells; also called 10D10-hIgG1LALA) heavy: not shown light: DIQMTQTTSSLSASLGDRVTISCRASQDVRNFLNWFQQKPDGTVKLLIYFTSRLHSGVPSRFSGSGSGTDYSLTISNLEQEDIATYFCQQGNTLPPTFGGGTKLEIKRTVAAPSVFIFPPSDEQLKSGTASVVCLLNNFYPREAKVQWKVDNALQSGNSQESVTEQDSKDSTYSLSSTLTLSKADYEKHKVYACEVTHQGLSSPVTKSFNRGEC
– | – | binds | binds | – | – | – | humanized 10D10 antibody (antibody, human IgG1, kappa, L234A L235A, V domains shown, human IgG1 LALA; also called h10D10-hIgG1LALA; humanized NKp46 antibody) VH: QVQLVQSGAEVKKPGASVKVSCKASGYTFTTYWMHWVKQAPGQGLEWIGEINPGNGGTNYNEKFKRRATMTVDKSISTAYMELSRLRSDDTAVYYCAIRLRFALDYWGQGTLVTVSS VL: DIQMTQSPSSLSASVGDRVTITCRASQDVRNFLNWFQQKPGKAPKLLIYFTSRLHSGVPSRFSGSGSGTDYTFTISSLQPEDIATYFCQQGNTLPPTFGGGTKLEIKR
– | – | binds | binds | – | – | – | human-murine chimeric 10E10 antibody (antibody, human IgG1, kappa, L234A L235A, Human IgG1 LALA constant region, made in ExpiCHO-S cells; also called 10E10-hIgG1LALA) heavy: not shown light: QIVLSQSPAILSASPGEKVTMACRASSSVNYIHWYQQRPGSSPKPWIYATSSLASGVPARFSGSGSGTSYSLTISRVEAEDAATYYCQQWSSNPYTFGGGTKLEMKRTVAAPSVFIFPPSDEQLKSGTASVVCLLNNFYPREAKVQWKVDNALQSGNSQESVTEQDSKDSTYSLSSTLTLSKADYEKHKVYACEVTHQGLSSPVTKSFNRGEC

Source: US20250340635A1 (HEFEI TG IMMUNOPHARMA, published 2025)
